{"source": "patent US20080242590", "proteins": {"B1": {"name": "Recombinant Human Neprilysin (R&D Systems) (protein)", "chain": "YDDGICKSSDCIKSAARLIQNMDATTEPCTDFFKYACGGWLKRNVIPETSSRYGNFDILRDELEVVLKDVLQEPKTEDIVAVQKAKALYRSCINESAIDSRGGEPLLKLLPDIYGWPVATENWEQKYGASWTAEKAIAQLNSKYGKKVLINLFVGTDDKNSVNHVIHIDQPRLGLPSRDYYECTGIYKEACTAYVDFMISVARLIRQEERLPIDENQLALEMNKVMELEKEIANATAKPEDRNDPMLLYNKMTLAQIQNNFSLEINGKPFSWLNFTNEIMSTVNISITNEEDVVVYAPEYLTKLKPILTKYSARDLQNLMSWRFIMDLVSSLSRTYKESRNAFRKALYGTTSETATWRRCANYVNGNMENAVGRLYVEAAFAGESKHVVEDLIAQIREVFIQTLDDLTWMDAETKKRAEEKALAIKERIGYPDDIVSNDNKLNNEYLELNYKEDEYFENIIQNLKFSQSKQLKKLREKVDKDEWISGAAVVNAFYSSGRNQIVFPAGILQPPFFSAQQSNSLNYGGIGMVIGHEITHGFDDNGRNFNKDGDLVDWWTQQSASNFKEQSQCMVYQYGNFSWDLAGGQHLNGINTLGENIADNGGLGQAYRAYQNYIKKNGEEKLLPGLDLNHKQLFFLNFAQVWCGTYRPEYAVNSIKTDVHSPGNFRIIGTLQNSAEFSEAFHCRKNSYMNPEKKCRVW"}}, "target": "amyloid β peptide 1-40 (human)"}
{"protein": "B1", "values": [{"measurement": "Amyloid β 1-40 peptide degradation (remaining peptide by Gyrolab immunoassay), enzyme 2.4 µg/ml, 300 nM peptide, 2.5 h at 37 °C in buffer", "value": "degraded 64% of Amyloid β 1-40 peptide (300 nM)"}, {"measurement": "degradation of Aβ40 in human plasma compared to vehicle (ELISA), 5 µg/ml, 4 h at 37 °C", "value": "degraded Aβ40 with 33% and 70%, respectively"}]}
